The text below walks through data of patent publication US9163227B2, “Anti-diabetic compounds” (PFIZER INC., priority 2011, dated 2015).

Residue numbers refer to the chain shown, from its start. Numbers in names are those of the source. Like-named read-outs stand apart in the source and are kept apart here. Bounds are passed on as bounds.

A short description of data set [1]: Stability of linkers L1-L4 conjugated to FGF21 (LC-MS). The settings on record: linker conjugated to FGF21ΔH-A129C. It is filed as physicochemical. The procedure: The following experiment was performed to investigate the chemical stability over 2 weeks of the four linkers upon conjugation to FGF21: each linker was conjugated to FGF21, placed at +4° C. storage conditions, and aliquots were removed and quenched by freezing at specific time points, and linker stability was monitored by LCMS analysis.
The four linkers were dissolved in DMSO from lyophilized stock material. […] L1 was reacted with protein for 30 mins; L2, L3 and L4 were reacted for 2 hrs. The conjugation reaction was quenched by removal of excess linkers through size-exclusion resin. Conjugated FGF21ΔH-A129C protein was placed at +4° C. for stability storage. […] Analysis of linker stability was performed by LC-MS analysis to determine the relative amount of unconjugated protein, protein+linker conjugation, and single and double hydrolysis events of the conjugated protein+linker.
Linker hydrolysis is the critical analytical variable in this experiment. Hydrolysis was monitored by observing the subsequent addition of H2O to the FGF21-linker complex. A single addition of H2O, +(1) H2O, likely indicates the hydrolysis of the active AZD group that is present on all 4 linkers. The addition of a second H2O molecule, +(2) H2O, is a strong indicator of hydrolysis (eg—chemical instability) in the linker. L1 is particularly susceptible because of the presence of a maleimide functional group.

Data set [2] has as its target Glut1 mRNA expression in differentiated 3T3-L1 adipocytes (Mus musculus, UniProt P16092+Q99N32). The data set can be described thus: Glut1 Taqman assay. It is filed as cell-based. The settings on record: for EC50: 6 hrs. The procedure: Differentiated 3T3-L1 adipocytes were used to measure the Glut1 mRNA expression by qPCR method. Overnight serum starved day 10-14 differentiated 3T3-L1 adipocytes were treated with compounds for 6 hrs. Total RNA was extracted from these cells, and Glut1 and GAPDH mRNA expression was measured using a Quantitect Probe RT-PCR kit and running a quantitative real time PCR reaction in a Taqman machine (Applied Biosystems®). The bioactivity of the compounds was determined by a fold change in Glut1 mRNA levels normalized by the GAPDH mRNA levels from each sample. EC═values as measurements of the potency of the compounds were obtained from the dose response curves in the assay.
3T3-L1 adipocytes were seeded at day 8 in 24-well tissue culture plates (Falcon®, Cat#353047), and incubated in DMEM complete medium (10% FBS, 2 mM L-glutamine, 1% P/S) at 37° C., 5% CO2. […] The medium was aspirated, and then RNA extracted from the cells using the RNeasy mini Kit according to the manufacturer's instructions. RNA was measured at A260 nm using the Spectramax® Plus spectrophotometer.
In Glut1 Taqman assay, differentiated 3T3-L1 adipocytes were used to measure the Glut1 mRNA expression by real-time quantitative PCR (qPCR) method described below. Overnight serum starved day 10-14 differentiated 3T3-L1 adipocytes were treated with compounds for 6 hrs. Total RNA was extracted from these cells, and Glut1 and GAPDH mRNA expression was measured using a Quantitect Probe RT-PCR kit and running a real time quantitative PCR reaction in a Taqman machine. The bioactivity of the compounds was determined by a fold change in Glut1 mRNA levels normalized by the GAPDH mRNA levels from each sample. In cAMP assay, Chinese hamster ovary (CHO) cells over-expressing human GLP-1R(CHO-hGLP-1R) were seeded in 96-well plates in serum-free medium with 300 uM IBMX. Cells were incubated with compounds at RT for 1 hr. The cAMP levels were measured using a CisBio cAMP Kit according to manufacturer's instructions. The bioactivity of the compounds was determined by the EC50 values obtained from the assay (see Table 42).

A short description of data set [3]: Hydrolysis of the reactive group of [SEQ ID NO:10-L1] over time. The class given is physicochemical. The settings on record: 4° C., FGF21 RP chromatography. How it is done: Fine Tune of Conjugation Conditions for FGF21-Linker: The laboratory scale-ups were performed at different scales with a variety of optimized buffers and pHs. […] Since hydrolysis of reactive group of SEQ ID NO:10-L1 occurs over time (Table 27), post activation diafiltration of SEQ ID NO:10-L1 should be operated at between about 2 and about 10° C. The amount of SEQ ID NO:10-L1 after post activation diafiltration varied in different experiments, and the difference could contribute to the variation of the conjugation efficiency for h38C2-[SEQ ID NO:10-L1]1. About 100 mM Phosphate pH about 6.3 gave the least aggregates and highest h38C2 remaining for recycle purpose.
The above sample was further passed through the UFDF to remove excess linker and TCEP. The membrane was sanitized with 1N NaOH for 30 min, drained, and equilibrated with 100 mM MES, pH 7.0. Buffer 100 mM MES, pH 7.0 was used for diafilteration (7× diafilteration). Diafiltration was done at 4 g/L retentate concentration. Foaming and splashing may be avoided during UF/DF. Hydrolysis of the reactive group of [SEQ ID NO:10-L1] occurred over the diafiltration process. The hold time for post-activation DF pool should be minimized. UF may be operated at 2-10° C. using 10K Sartorius Hydrosart membrane. The combined species [SEQ ID NO:10-L1] confirmed by FGF21 RP was down from 73% to 64% after UF/DF.

Where [4] appears, read: differentiated 3T3-L1 adipocytes, protein or antibody conjugate as labelled, read-out: Glut1 Taqman assay EC50.

Glut1 mRNA expression in differentiated 3T3-L1 adipocytes, sequence (P16092 22-822): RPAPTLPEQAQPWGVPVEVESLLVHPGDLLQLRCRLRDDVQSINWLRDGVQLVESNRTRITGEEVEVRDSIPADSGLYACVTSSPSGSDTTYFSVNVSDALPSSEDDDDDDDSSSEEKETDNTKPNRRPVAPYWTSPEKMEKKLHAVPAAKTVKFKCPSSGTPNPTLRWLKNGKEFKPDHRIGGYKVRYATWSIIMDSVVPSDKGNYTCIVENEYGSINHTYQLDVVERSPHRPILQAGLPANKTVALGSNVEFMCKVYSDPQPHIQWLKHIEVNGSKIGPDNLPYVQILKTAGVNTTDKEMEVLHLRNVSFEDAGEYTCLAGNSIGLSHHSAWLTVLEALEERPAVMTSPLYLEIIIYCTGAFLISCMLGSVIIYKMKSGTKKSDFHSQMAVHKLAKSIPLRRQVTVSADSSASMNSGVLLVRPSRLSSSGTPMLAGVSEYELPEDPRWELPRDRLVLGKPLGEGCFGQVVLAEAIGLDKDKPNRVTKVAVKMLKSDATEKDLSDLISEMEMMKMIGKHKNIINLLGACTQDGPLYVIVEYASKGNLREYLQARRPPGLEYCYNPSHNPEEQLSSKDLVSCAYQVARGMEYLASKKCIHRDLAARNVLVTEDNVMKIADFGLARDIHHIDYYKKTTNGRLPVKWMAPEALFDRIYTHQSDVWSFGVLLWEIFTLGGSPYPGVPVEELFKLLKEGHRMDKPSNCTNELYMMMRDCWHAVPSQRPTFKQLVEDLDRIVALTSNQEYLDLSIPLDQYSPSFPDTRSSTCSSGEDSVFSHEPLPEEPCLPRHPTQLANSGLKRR
Glut1 mRNA expression in differentiated 3T3-L1 adipocytes, sequence (Q99N32 whole entry): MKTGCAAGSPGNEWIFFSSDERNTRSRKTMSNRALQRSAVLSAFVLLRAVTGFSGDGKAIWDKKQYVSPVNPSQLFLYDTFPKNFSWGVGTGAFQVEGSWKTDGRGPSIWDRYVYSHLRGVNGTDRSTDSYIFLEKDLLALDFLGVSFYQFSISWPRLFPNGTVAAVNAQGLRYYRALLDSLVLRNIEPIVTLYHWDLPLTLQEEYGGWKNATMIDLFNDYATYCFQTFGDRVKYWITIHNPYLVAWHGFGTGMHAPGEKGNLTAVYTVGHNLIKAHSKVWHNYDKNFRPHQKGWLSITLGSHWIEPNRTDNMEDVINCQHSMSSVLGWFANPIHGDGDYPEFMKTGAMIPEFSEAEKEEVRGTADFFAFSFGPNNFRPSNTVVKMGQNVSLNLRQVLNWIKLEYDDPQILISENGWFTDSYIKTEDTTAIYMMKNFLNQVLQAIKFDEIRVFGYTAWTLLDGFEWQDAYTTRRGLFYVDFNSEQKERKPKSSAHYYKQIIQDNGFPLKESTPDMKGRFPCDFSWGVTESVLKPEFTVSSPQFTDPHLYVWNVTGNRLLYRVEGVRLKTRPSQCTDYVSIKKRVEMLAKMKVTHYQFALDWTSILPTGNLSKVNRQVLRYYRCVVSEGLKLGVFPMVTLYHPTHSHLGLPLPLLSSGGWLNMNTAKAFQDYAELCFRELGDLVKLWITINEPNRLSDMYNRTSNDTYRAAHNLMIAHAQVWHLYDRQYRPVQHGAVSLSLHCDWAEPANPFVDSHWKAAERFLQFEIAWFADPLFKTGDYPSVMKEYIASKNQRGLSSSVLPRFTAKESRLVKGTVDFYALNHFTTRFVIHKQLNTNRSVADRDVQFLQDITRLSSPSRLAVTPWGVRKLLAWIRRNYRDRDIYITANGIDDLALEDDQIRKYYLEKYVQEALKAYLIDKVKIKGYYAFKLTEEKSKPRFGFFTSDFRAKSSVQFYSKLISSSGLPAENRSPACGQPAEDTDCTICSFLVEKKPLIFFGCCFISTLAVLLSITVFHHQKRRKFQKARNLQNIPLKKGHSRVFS

On to `CC1=CC(=O)N(CC2CCC(C(=O)NCCOCCOCCC(=O)Nc3ccc(CCC(=O)N4CCC4=O)cc3)CC2)C1=O` (stereo not drawn) [Compound L4], for which the “0 linker (unconjugated protein)” value stood at 20% in data set [1] (+4° C. storage, LC-MS, of total measured protein, 0 hrs); 20% in data set [1] (+4° C., 24 hrs); 21% in data set [1] (+4° C., 72 hrs); 21% in data set [1] (+4° C., 168 hrs); 22% in data set [1] (+4° C., 336 hrs). Moreover, the “1 linker (protein+linker conjugation)” value in data set [1] (+4° C., 0 hrs) was 46%; in data set [1] (+4° C., 24 hrs) it was 46%; in data set [1] (+4° C., 72 hrs) it was 42%; in data set [1] (+4° C., 168 hrs), 41%; in data set [1] (+4° C., 336 hrs) it was 41%. Moreover, the “+(1) H2O (single hydrolysis)” value in data set [1] (+4° C., 0 hrs) is reported as 28%; in data set [1] (+4° C., 24 hrs) it was 27%; in data set [1] (+4° C., 72 hrs), 30%; in data set [1] (+4° C., 168 hrs), 32%; in data set [1] (+4° C., 336 hrs), 31%. The “+(2) H2O (double hydrolysis)” value amounted to 6% in data set [1] (+4° C., 0 hrs); 7% in data set [1] (+4° C., 24 hrs); 7% in data set [1] (+4° C., 72 hrs); 6% in data set [1] (+4° C., 168 hrs); 6% in data set [1] (+4° C., 336 hrs (2 weeks)).

B1: FGF21ΔH-Knull-P2: FGF21 lysine-null mutant, SEQ ID NO:22 (protein, listed as Homo sapiens)
chain: PIPDSSPLLQFGGQVRQRYLYTDDAQQTEAHLEIREDGTVGGAADQSPESLLQLRALRPGVIQILGVRTSRFLCQRPDGALYGSLHFDPEACSFRELLLEDGYNVYQSEAHGLPLHLPGNRSPHRDPAPRGPARFLPLPGLPPALPEPPGILAPQPPDVGSSDPLSMVGPSQGRSPSYAS
With B1, the EC50 in data set [2] (setting [4]) worked out at 1.2 nM.

B2: [SEQ ID NO: 10-L1] (protein, listed as Homo sapiens)
chain: B1 chain with R55K, R58K, R68K, R121K, A128C
modifications: L1 linker attached
Take B2: the “% FGF21” value amounted to 13.4% in data set [3] (0 hour); 13.2% in data set [3] (1 hour); 14.4% in data set [3] (2 hrs); 13.3% in data set [3] (3 hrs); 13.9% in data set [3] (4 hrs); 14.3% in data set [3] (5 hrs). Further, the “% FGF21” value in data set [3] (6 hrs) was found to be 13.9%; in data set [3] (8 hrs), 14.5%; in data set [3] (10 hrs), 15.0%. The “% FGF21 dimer” value in data set [3] (0 hour) was determined as 1.8%; in data set [3] (1 hour), 2.8%; in data set [3] (2 hrs), 4.0%; in data set [3] (3 hrs), 4.1%; in data set [3] (4 hrs), 4.5%; in data set [3] (5 hrs) it was 5.0%. The “% FGF21 dimer” value was determined as 5.2% in data set [3] (6 hrs), 5.7% in data set [3] (8 hrs) and 5.9% in data set [3] (10 hrs). Moreover, the “% Hydrolyzed reactive FGF21ΔH-A129C-L1” value in data set [3] (0 hour) was 6.5%; in data set [3] (1 hour), 8.8%; in data set [3] (2 hrs), 10.6%; in data set [3] (3 hrs), 13.6%; in data set [3] (4 hrs) it was 14.9%; in data set [3] (5 hrs) it was 16.9%. The results for the “% Hydrolyzed reactive FGF21ΔH-A129C-L1” value in data set [3] (6 hrs), in data set [3] (8 hrs) and in data set [3] (10 hrs) were 18.8%, 22.3% and 25.0%, respectively. The “% Other” value turned out to be 1.6% in data set [3] (0 hour); 1.6% in data set [3] (1 hour); 1.9% in data set [3] (2 hrs); 1.9% in data set [3] (3 hrs); 1.8% in data set [3] (4 hrs); 1.9% in data set [3] (5 hrs). Also, the “% Other” value in data set [3] (6 hrs) is given as 1.8%; in data set [3] (8 hrs) it was 1.7%; in data set [3] (10 hrs) it was 1.8%. Also, the “% reactive FGF21ΔH-A129C-L1” value in data set [3] (0 hour) came to 76.7%; in data set [3] (1 hour) it was 73.6%; in data set [3] (2 hrs), 69.1%; in data set [3] (3 hrs) it was 67.1%; in data set [3] (4 hrs), 64.9%; in data set [3] (5 hrs), 61.9%. Further, the “% reactive FGF21ΔH-A129C-L1” value in data set [3] (6 hrs) was found to be 60.3%; in data set [3] (8 hrs) it was 55.8%; in data set [3] (10 hrs), 52.3%.

B3: FGF21ΔH-H125C: FGF21 cysteine mutant, SEQ ID NO:7 (protein, listed as Homo sapiens)
chain: B1 chain with R55K, R58K, R68K, R121K, H124C
With B3, the EC50 in data set [2] (setting [4]) came out at 1.2 nM.

B4: FGF21ΔH-A129C: FGF21 cysteine mutant, SEQ ID NO:10 (protein, listed as Homo sapiens)
chain: B1 chain with R55K, R58K, R68K, R121K, A128C
B4: the “activity in Glut1 Taqman assay (in words)” value in data set [2] (3T3-L1 adipocytes) was “dose-dependent Glut1 induction”. The EC50 amounted to 16 nM in data set [2] (3T3-L1 adipocytes, serum-free DMEM 0.2% BSA, Taqman quantitative real-time PCR, read-out: Glut1 RNA expression EC50) and 1.4 nM in data set [2] (setting [4]).

B5: Ab-L5-FGF21ΔH-Knull-S181K: SEQ ID NO:24 combined with L5 at S181K and conjugated with h38C2 (conjugate, listed as Homo sapiens)
chain: B1 chain with S180K
modifications: L5 linker at K181 conjugated to h38C2 antibody
For B5, the EC50 in data set [2] (setting [4]) is greater than 500 nM.

B6: FGF21ΔH-Knull-S181K: FGF21 lysine-null mutant with S181K, SEQ ID NO:24 (protein, listed as Homo sapiens)
chain: B1 chain with S180K
With B6, the EC50 in data set [2] (setting [4]) came to 7.5 nM.
